The MegaScale stability set (Tsuboyama et al. 2023)

B1: EEHEE_rd3_1049 (parent)
chain: TTVKLGDIKVTFDNPEKAKKYAQKLAKIYQLTVHVHGDTIHVK

Variants of: B1
Assay: folding stability dG (cDNA display proteolysis); higher = more stable
Conditions: PBS, room temperature

Variant | folding stability dG [kcal/mol]
TTVKLGDIKVTFDNPEKAKKYSQKLAKIYQLTVHVHGDTIHVK [A22S] | 0.584
TTVKLGDIKVTFDNPEKAKKYPQKLAKIYQLTVHVHGDTIHVK [A22P] | -0.681
TTVKLGDIKVTFDNPEKAKKYFQKLAKIYQLTVHVHGDTIHVK [A22F] | 1.08
TTVKLGDIKVTFDNPEKAKKYIQKLAKIYQLTVHVHGDTIHVK [A22I] | 1.48
TTVKLGDIKVTFDNPEKAKKYTQKLAKIYQLTVHVHGDTIHVK [A22T] | 0.394
TTVKLGDIKVTFDNPEKAKKYLQKLAKIYQLTVHVHGDTIHVK [A22L] | 1.47
TTVKLGDIKVTFDNPEKAKKYEQKLAKIYQLTVHVHGDTIHVK [A22E] | -0.139
TTVKLGDIKVTFDNPEKAKKYGQKLAKIYQLTVHVHGDTIHVK [A22G] | 0.327
TTVKLGDIKVTFDNPEKAKKYNQKLAKIYQLTVHVHGDTIHVK [A22N] | 0.115
TTVKLGDIKVTFDNPEKAKKYWQKLAKIYQLTVHVHGDTIHVK [A22W] | 1.24
TTVKLGDIKVTFDNPEKAKKYHQKLAKIYQLTVHVHGDTIHVK [A22H] | 0.262
TTVKLGDIKVTFDNPEKAKKYMQKLAKIYQLTVHVHGDTIHVK [A22M] | 1.07
TTVKLGDIKVTFDNPEKAKKYKQKLAKIYQLTVHVHGDTIHVK [A22K] | 0.531
TTVKLGDIKVTFDNPEKAKKYDQKLAKIYQLTVHVHGDTIHVK [A22D] | -0.543
TTVKLGDIKVTFDNPEKAKKYYQKLAKIYQLTVHVHGDTIHVK [A22Y] | 0.937
TTVKLGDIKVTFDNPEKAKKYVQKLAKIYQLTVHVHGDTIHVK [A22V] | 1.34
TTVKLGDIKVTFDNPEKAKKYQQKLAKIYQLTVHVHGDTIHVK [A22Q] | 0.388
TTVKLGDIKVTFDNPEKAKKYRQKLAKIYQLTVHVHGDTIHVK [A22R] | 0.612
TTVKLGDIKVTFDNPEKAWKYAQKLAKIYQLTVHVHGDTIHVK [K19W] | 3.16
TTVKLGDIKVTFDNPEKAYKYAQKLAKIYQLTVHVHGDTIHVK [K19Y] | 2.9
TTVKLGDIKVTFDNPEKAVKYAQKLAKIYQLTVHVHGDTIHVK [K19V] | 1.97
TTVKLGDIKVTFDNPEKAKKYAQKLEKIYQLTVHVHGDTIHVK [A26E] | 0.645
TTVKLGDIKVTFDNPEKAKKYAQKLDKIYQLTVHVHGDTIHVK [A26D] | 0.078
TTVKLGDIKVTFDNPEKAKKYAQKLCKIYQLTVHVHGDTIHVK [A26C] | 2.77

Variant | folding stability dG [kcal/mol]
TTVKLGDIKVTFDNPEKAKKYAQELAKIYQLTVHVHGDTIHVK [K24E] | 1.66
TTVKLGDIKVTFDNPEKAKKYAQPLAKIYQLTVHVHGDTIHVK [K24P] | -0.36
TTVKLGDIKVTFDNPEKAKKYAQQLAKIYQLTVHVHGDTIHVK [K24Q] | 1.86
TTVKLGDIKVTFDNPEKAKKYAQNLAKIYQLTVHVHGDTIHVK [K24N] | 1.58
TTVKLGDIKVTFDNPEKAKKYAQVLAKIYQLTVHVHGDTIHVK [K24V] | 1.96
TTVKLGDIKVTFDNPEKAKKYAQSLAKIYQLTVHVHGDTIHVK [K24S] | 1.57
TTVKLGDIKVTFDNPEKAKKYAQILAKIYQLTVHVHGDTIHVK [K24I] | 2.28
TTVKLGDIKVTFDNPEKAKKYAQYLAKIYQLTVHVHGDTIHVK [K24Y] | 3.04
TTVKLGDIKVTFDNPEKAKKYAQGLAKIYQLTVHVHGDTIHVK [K24G] | 1.23
TTVKLGDIKVTFDNPEKAKKYAQTLAKIYQLTVHVHGDTIHVK [K24T] | 1.83
TTVKLGDIKVTFDNPEKAKKYAQFLAKIYQLTVHVHGDTIHVK [K24F] | 2.87
TTVKLGDIKVTFDNPEKAKKYAQLLAKIYQLTVHVHGDTIHVK [K24L] | 2.67
TTVKLGDIKVTFDNPEKAKKYAQALAKIYQLTVHVHGDTIHVK [K24A] | 1.98
TTVKLGDIKVTFDNPEKAKKYAQHLAKIYQLTVHVHGDTIHVK [K24H] | 2.27
TTVKLGDIKVTFDNPEKAKKYAQDLAKIYQLTVHVHGDTIHVK [K24D] | 1.36
TTVKLGDIKVTFDNPEKAKKYAQWLAKIYQLTVHVHGDTIHVK [K24W] | 3.42
TTVKLGDIKVTFDNPEKAKKYAQMLAKIYQLTVHVHGDTIHVK [K24M] | 2.65
TTVKLGDIKVTFDNPEKAKKYAQRLAKIYQLTVHVHGDTIHVK [K24R] | 2.17
TTVKLGDIKVTFDNPEKAKKYATKLAKIYQLTVHVHGDTIHVK [Q23T] | 1.64
TTVKLGDIKVTFDNPEKAKKYAPKLAKIYQLTVHVHGDTIHVK [Q23P] | -0.329
TTVKLGDIKVTFDNPEKAKKYAWKLAKIYQLTVHVHGDTIHVK [Q23W] | 2.06
TTVKLGDIKVTFDNPEKAKKYAKKLAKIYQLTVHVHGDTIHVK [Q23K] | 1.87
TTVKLGDIKVTFDNPEKAKKYAEKLAKIYQLTVHVHGDTIHVK [Q23E] | 2.19
TTVKLGDIKVTFDNPEKAKKYAMKLAKIYQLTVHVHGDTIHVK [Q23M] | 2.25

Variant | folding stability dG [kcal/mol]
TTVKLGDIKVTFDNPEKAKKYAVKLAKIYQLTVHVHGDTIHVK [Q23V] | 1.73
TTVKLGDIKVTFDNPEKAKKYAHKLAKIYQLTVHVHGDTIHVK [Q23H] | 1.9
TTVKLGDIKVTFDNPEKAKKYARKLAKIYQLTVHVHGDTIHVK [Q23R] | 1.94
TTVKLGDIKVTFDNPEKAKKYAGKLAKIYQLTVHVHGDTIHVK [Q23G] | 1.06
TTVKLGDIKVTFDNPEKAKKYADKLAKIYQLTVHVHGDTIHVK [Q23D] | 1.91
TTVKLGDIKVTFDNPEKAKKYASKLAKIYQLTVHVHGDTIHVK [Q23S] | 1.58
TTVKLGDIKVTFDNPEKAKKYAFKLAKIYQLTVHVHGDTIHVK [Q23F] | 2.14
TTVKLGDIKVTFDNPEKAKKYANKLAKIYQLTVHVHGDTIHVK [Q23N] | 1.88
TTVKLGDIKVTFDNPEKAKKYAIKLAKIYQLTVHVHGDTIHVK [Q23I] | 2.03
TTVKLGDIKVTFDNPEKAKKYALKLAKIYQLTVHVHGDTIHVK [Q23L] | 2.22
TTVKLGDIKVTFDNPEKAKKYAYKLAKIYQLTVHVHGDTIHVK [Q23Y] | 2.29
TTVKLGDIKVTFDNPEKAKKYAAKLAKIYQLTVHVHGDTIHVK [Q23A] | 2.1
TTVKLGDIKVTFDNPEKAKKYACKLAKIYQLTVHVHGDTIHVK [Q23C] | 3.24
TTVKLGDIKVTFDNPEKAKMYAQKLAKIYQLTVHVHGDTIHVK [K20M] | 2.04
TTVKLGDIKVTFDNPEKAKAYAQKLAKIYQLTVHVHGDTIHVK [K20A] | 2.27
TTVKLGDIKVTFDNPEKAKSYAQKLAKIYQLTVHVHGDTIHVK [K20S] | 1.71
TTVKLGDIKVTFDNPEKAKFYAQKLAKIYQLTVHVHGDTIHVK [K20F] | 1.8
TTVKLGDIKVTFDNPEKAKCYAQKLAKIYQLTVHVHGDTIHVK [K20C] | 2.63
TTVKLGDIKVTFDNPEKAKIYAQKLAKIYQLTVHVHGDTIHVK [K20I] | 1.97
TTVKLGDIKVTFDNPEKAKGYAQKLAKIYQLTVHVHGDTIHVK [K20G] | 1.13
TTVKLGDIKVTFDNPEKAKLYAQKLAKIYQLTVHVHGDTIHVK [K20L] | 2.08
TTVKLGDIKVTFDNPEKAKQYAQKLAKIYQLTVHVHGDTIHVK [K20Q] | 2.02
TTVKLGDIKVTFDNPEKAKHYAQKLAKIYQLTVHVHGDTIHVK [K20H] | 1.67
TTVKLGDIKVTFDNPEKAKTYAQKLAKIYQLTVHVHGDTIHVK [K20T] | 1.57

Variant | folding stability dG [kcal/mol]
TTVKLGDIKVTFDNPEKAKNYAQKLAKIYQLTVHVHGDTIHVK [K20N] | 1.66
TTVKLGDIKVTFDNPEKAKEYAQKLAKIYQLTVHVHGDTIHVK [K20E] | 2.06
TTVKLGDIKVTFDNPEKAKVYAQKLAKIYQLTVHVHGDTIHVK [K20V] | 1.78
TTVKLGDIKVTFDNPEKAKPYAQKLAKIYQLTVHVHGDTIHVK [K20P] | -0.125
TTVKLGDIKVTFDNPEKAKYYAQKLAKIYQLTVHVHGDTIHVK [K20Y] | 1.92
TTVKLGDIKVTFDNPEKAKRYAQKLAKIYQLTVHVHGDTIHVK [K20R] | 2.21
TTVKLGDIKVTFDNPEKAKWYAQKLAKIYQLTVHVHGDTIHVK [K20W] | 2.18
TTVKLGDIKVTFDNPEKAKDYAQKLAKIYQLTVHVHGDTIHVK [K20D] | 1.55
TTVKLGDIKVTFDNPEKAKKSAQKLAKIYQLTVHVHGDTIHVK [Y21S] | -0.364
TTVKLGDIKVTFDNPEKAKKMAQKLAKIYQLTVHVHGDTIHVK [Y21M] | 0.885
TTVKLGDIKVTFDNPEKAKKVAQKLAKIYQLTVHVHGDTIHVK [Y21V] | 0.867
TTVKLGDIKVTFDNPEKAKKDAQKLAKIYQLTVHVHGDTIHVK [Y21D] | -0.407
TTVKLGDIKVTFDNPEKAKKNAQKLAKIYQLTVHVHGDTIHVK [Y21N] | -0.383
TTVKLGDIKVTFDNPEKAKKQAQKLAKIYQLTVHVHGDTIHVK [Y21Q] | -0.123
TTVKLGDIKVTFDNPEKAKKPAQKLAKIYQLTVHVHGDTIHVK [Y21P] | -0.648
TTVKLGDIKVTFDNPEKAKKRAQKLAKIYQLTVHVHGDTIHVK [Y21R] | 0.268
TTVKLGDIKVTFDNPEKAKKLAQKLAKIYQLTVHVHGDTIHVK [Y21L] | 1.15
TTVKLGDIKVTFDNPEKAKKGAQKLAKIYQLTVHVHGDTIHVK [Y21G] | -0.676
TTVKLGDIKVTFDNPEKAKKHAQKLAKIYQLTVHVHGDTIHVK [Y21H] | 0.523
TTVKLGDIKVTFDNPEKAKKIAQKLAKIYQLTVHVHGDTIHVK [Y21I] | 0.827
TTVKLGDIKVTFDNPEKAKKFAQKLAKIYQLTVHVHGDTIHVK [Y21F] | 2.36
TTVKLGDIKVTFDNPEKAKKTAQKLAKIYQLTVHVHGDTIHVK [Y21T] | 0.282
TTVKLGDIKVTFDNPEKAKKWAQKLAKIYQLTVHVHGDTIHVK [Y21W] | 2.22
TTVKLGDIKVTFDNPEKAKKAAQKLAKIYQLTVHVHGDTIHVK [Y21A] | 0.651

Variant | folding stability dG [kcal/mol]
TTVKLGDIKVTFDNPEKAKKKAQKLAKIYQLTVHVHGDTIHVK [Y21K] | -0.234
TTVKLGDIKVTFDNPEKAKKCAQKLAKIYQLTVHVHGDTIHVK [Y21C] | 2.04
TTVKLGDIKVTFDNPEKAKKEAQKLAKIYQLTVHVHGDTIHVK [Y21E] | -0.031
TTVKLGDIKVTFDNPEKAKKYAQKCAKIYQLTVHVHGDTIHVK [L25C] | 2.11
TTVKLGDIKVTFDNPEKAKKYAQKNAKIYQLTVHVHGDTIHVK [L25N] | -0.312
TTVKLGDIKVTFDNPEKAKKYAQKEAKIYQLTVHVHGDTIHVK [L25E] | -0.772
TTVKLGDIKVTFDNPEKAKKYAQKWAKIYQLTVHVHGDTIHVK [L25W] | 1.44
TTVKLGDIKVTFDNPEKAKKYAQKYAKIYQLTVHVHGDTIHVK [L25Y] | 0.832
TTVKLGDIKVTFDNPEKAKKYAQKFAKIYQLTVHVHGDTIHVK [L25F] | 0.868
TTVKLGDIKVTFDNPEKAKKYAQKSAKIYQLTVHVHGDTIHVK [L25S] | -0.33
TTVKLGDIKVTFDNPEKAKKYAQKDAKIYQLTVHVHGDTIHVK [L25D] | -0.607
TTVKLGDIKVTFDNPEKAKKYAQKKAKIYQLTVHVHGDTIHVK [L25K] | 0.474
TTVKLGDIKVTFDNPEKAKKYAQKVAKIYQLTVHVHGDTIHVK [L25V] | 1.26
TTVKLGDIKVTFDNPEKAKKYAQKTAKIYQLTVHVHGDTIHVK [L25T] | 0.212
TTVKLGDIKVTFDNPEKAKKYAQKQAKIYQLTVHVHGDTIHVK [L25Q] | 0.293
TTVKLGDIKVTFDNPEKAKKYAQKPAKIYQLTVHVHGDTIHVK [L25P] | -0.554
TTVKLGDIKVTFDNPEKAKKYAQKHAKIYQLTVHVHGDTIHVK [L25H] | 0.021
TTVKLGDIKVTFDNPEKAKKYAQKRAKIYQLTVHVHGDTIHVK [L25R] | 0.324
TTVKLGDIKVTFDNPEKAKKYAQKIAKIYQLTVHVHGDTIHVK [L25I] | 1.83
TTVKLGDIKVTFDNPEKAKKYAQKGAKIYQLTVHVHGDTIHVK [L25G] | -0.255
TTVKLGDIKVTFDNPEKAKKYAQKAAKIYQLTVHVHGDTIHVK [L25A] | 0.276
TTVKLGDIKVTFDNPEKAKKYAQKMAKIYQLTVHVHGDTIHVK [L25M] | 1.55
